The source of these data is article PMC8892499.

Read-outs that look alike come from different tables or passages of the source.

As usually defined, the Kd is the equilibrium constant for the complex coming apart.

Test [1] deals with OmpX_(1,149), double-cysteine variant of outer membrane protein X, labeled with FRET donor and acceptor dyes, unfolded (uOmpX) (UniProt P0A917). The experiment in a line: single-molecule FRET (smFRET) titration, intramolecular FRET of labeled uOmpX; as the titration at 37 °C, but at 25 °C: 20 pM labeled uOmpX in buffer with Skp3 or SurA; 20 mM Tris-HCl pH 8.0, 150 mM NaCl; Hill coefficient set to 1 (Skp3) and 1.5 (SurA).

Test [2] shares this target. As to the kind of experiment: single-molecule FRET (smFRET) titration, intramolecular FRET of labeled uOmpX; 20 pM labeled uOmpX diluted from 6 M GdmCl into buffer with chaperone (Skp3 from 0.5 nM to 2.5 µM; SurA 46 nM to 25 µM); 20 mM Tris-HCl pH 8.0, 150 mM NaCl, 6 mM GdmCl, 87.5 nM LDAO; 37 °C; bound fraction from three Gaussian distributions; Hill coefficient set to 1 (Skp3) and 1.5 (SurA).

Test [3] shares this target. As to the kind of experiment: single-molecule FRET (smFRET) titration, intramolecular FRET of labeled uOmpX; global analysis of FRET efficiency distributions at different chaperone concentrations and temperatures (25, 31, 37 °C); ΔH and ΔS from the temperature dependence of Ka; errors by bootstrapping.
Test [4] shares this target. The test is described as above. This is another data set of the same source.
Test [5] has the same target. The experiment in a line: single-molecule FRET (smFRET) titration, intramolecular FRET of labeled uOmpX; 20 pM labeled uOmpX diluted from 6 M GdmCl into buffer with chaperone (Skp3 from 0.5 nM to 2.5 µM; SurA 46 nM to 25 µM); 20 mM Tris-HCl pH 8.0, 150 mM NaCl, 6 mM GdmCl, 87.5 nM LDAO; 37 °C; bound fraction from three Gaussian distributions; Hill coefficient set to 1 (Skp3) and 1.5 (SurA). This is another data set of the same source.

In test [1], “survival factor A (SurA) (from UniProt P0ABZ6 21-428) (natural protein)” gave a dissociation constant Kd of 1000 nM and a c1/2 (inverse of Ka) of 103 nM. In test [2], this molecule displayed a Kd of 8200 nM, a c1/2 (inverse of Ka) of 407 nM and a percent of uOmpX molecules bound at ~6 µM SurA of 87%. Further, in test [3], the dH is -31.5 kcal/mol.

B1: 17-kilodalton protein (Skp), trimer (Skp3) (natural protein)
chain: ADKIAIVNMGSLFQQVAQKTGVSNTLENEFKGRASELQRMETDLQAKMKKLQSMKAGSDRTKLEKDVMAQRQTFAQKAQAFEQDRARRSNEERGKLVTRIQTAVKSVANSQDIDLVVDANAVAYNSSDVKDITADVLKQVK
For the molecule B1, the dH in test [4] was -71.2 kcal/mol. Further, in test [1], the dissociation constant Kd amounted to 3.6 nM and the c1/2 (inverse of Ka) turned out to be 3.55 nM. In test [5], this molecule registered a dissociation constant (Kd) of 359 nM, a c1/2 (inverse of Ka) of 359 nM and a percent of uOmpX molecules bound at 2.5 µM Skp3 of 80%.
